Test results as given in PMC6978647.
Read-outs that look alike come from different tables or passages of the source.

Columns and labels:
[1] = target: aeBlue chromoprotein (Actinia equina); assay: SEC
[2] = target: aeBlue chromoprotein (Actinia equina); assay: SEC; remark: listed apart in the source

How did the stoichiometry N [1] turn out when aeBlue chromoprotein (natural protein) was run?
The stoichiometry N was 3.84 subunits.

What about the stoichiometry N [2] of the same substance?
Its stoichiometry N is 4.45 subunits.
